Changes are numbered by the printed parent chain. Where “and” joins values, the source holds several entries; their conditions need not be identical. Identical values can stand only once.
T1: 6His-Fc-FGFR1c (human, UniProt P11362 141-376)
T1 construct: not shown: 6His tag and Fc as named in '6His-Fc-FGFR'
T1 sequence: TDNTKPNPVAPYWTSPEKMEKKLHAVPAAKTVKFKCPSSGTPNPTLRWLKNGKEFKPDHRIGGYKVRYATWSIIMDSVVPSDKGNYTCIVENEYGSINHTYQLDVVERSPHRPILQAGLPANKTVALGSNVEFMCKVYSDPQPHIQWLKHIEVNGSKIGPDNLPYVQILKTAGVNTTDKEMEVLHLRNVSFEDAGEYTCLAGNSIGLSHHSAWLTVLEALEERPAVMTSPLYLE

T2: 6His-Fc-FGFR4 (human, UniProt P22455 144-369)
T2 construct: not shown: 6His tag and Fc as named in '6His-Fc-FGFR'
T2 sequence: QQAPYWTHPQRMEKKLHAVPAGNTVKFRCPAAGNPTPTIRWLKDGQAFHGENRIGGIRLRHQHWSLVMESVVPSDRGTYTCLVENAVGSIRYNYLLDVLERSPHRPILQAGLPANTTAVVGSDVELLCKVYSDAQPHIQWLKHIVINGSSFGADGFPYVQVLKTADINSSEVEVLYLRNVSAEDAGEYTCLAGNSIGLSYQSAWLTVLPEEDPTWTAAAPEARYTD

T3: recombinant human FGFR4 Fc fusion (human, UniProt P22455 144-369)
T3 construct: 19 used; also called FGFR4c; not shown: Fc part of the FGFR-Fc fusion
T3 sequence: T2 sequence

T4: recombinant human FGFR1c Fc fusion (human, UniProt P11362 141-376)
T4 construct: also called FGFR1IIIc; not shown: Fc part of the FGFR-Fc fusion
T4 sequence: T1 sequence

T5: recombinant human FGFR3c Fc fusion (human, UniProt P22607 141-372)
T5 construct: also called FGFR3IIIc; not shown: Fc part of the FGFR-Fc fusion
T5 sequence: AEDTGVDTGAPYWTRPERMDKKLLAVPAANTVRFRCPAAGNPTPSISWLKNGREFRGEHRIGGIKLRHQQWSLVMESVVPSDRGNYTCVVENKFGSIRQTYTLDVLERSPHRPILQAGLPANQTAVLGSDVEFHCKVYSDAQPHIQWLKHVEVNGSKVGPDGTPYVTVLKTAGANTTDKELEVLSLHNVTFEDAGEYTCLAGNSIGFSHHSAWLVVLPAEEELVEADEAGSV

T6: soluble FGFR3c receptor protein (human, UniProt P22607 141-372)
T6 sequence: T5 sequence

T7: soluble FGFR1c receptor protein (human, UniProt P11362 141-376)
T7 sequence: T1 sequence

T8: soluble FGFR4 receptor protein (human, UniProt P22455 144-369)
T8 sequence: T2 sequence

B1: Ab15 (antibody, human IgG2, kappa, V domains shown)
VH: EVQLLESGGGVVQPGRSLRLSCAASGFTFSSYAMHWVRQAPGKGLEWVAVISYDGSNKYYADSVKGRFTISRDNSKNTLSLQMNSLRVEDTAIYYCVRGAGRGYTYGPDGFDIWGQGTMVTVSS
VL: DIVMTQTPLSLSVTPGQPASISCTSSRSLLHSDGKTYVYWYVQKSGQPPQLLIYELSNRFSGVPDRFSGSGSRTDFTLKISRVEAEDVGVYYCMQYIEAPLTFGGGTKVEIKR
notes: Format in each assay not spelled out; also called FGF#26
B2: Ab92 (antibody, human IgG2, kappa, V domains shown)
VH: B1 VH with R102H, Y104F, T105P, Y106T
VL: B1 VL with T24R, I97V
notes: format in the assays not spelled out
B3: Ab90 (antibody, human IgG2, kappa, V domains shown)
VH: B1 VH with T105P
VL: B1 VL with I97V, A99V
notes: as for B2
B4: Ab60 (antibody, human IgG2, kappa, V domains shown)
VH: B1 VH with T28D, S30A, S31G, Y104L
VL: B1 VL
notes: as for B2
B5: Ab19 (antibody, human IgG2, kappa, V domains shown)
VH: B1 VH with Y104F, Y106L
VL: B1 VL with T24K
notes: as for B2

Experiments:
6His-Fc-FGFR1c = biological target: T1, 6His-Fc-FGFR1c; test: competition ELISA, blocks 6His-Fc-FGFR1c binding to coated FGF2
Description: (§1) ELISA plates were coated with 50 ug/ml Heparin Sulfate (HSPG) (Sigma Aldrich) and incubated overnight at room temperature. Plates were then washed extensively with PBS containing 0.05% v/v Tween20 (PBST). Plates were then blocked with 2.5% BSA in PBST for one hour and washed extensively as before. 40-60 μL of FGF1 or FGF2 was then added to each well at 40 μg/ml and allowed to bind at room temperature for 2 hours. Plates were then washed extensively with PBST as before. Stock solutions of each 6His-Fc-FGFR (FGFR1-4) were prepared at 500 ng/ml in 2% v/v BSA-PBST and each antibody was prepared as a 2×-dilution series in 2% v/v BSA-PBST. Antibodies dilution series and 6His-Fc-FGFR1-4 were diluted in a 1:1 fashion and immediately added to the relative wells of the plate and allowed to bind for 2 hours at room temperature. Plates were washed extensively as before with PBST and the remaining fraction of bound 6His-Fc-FGFR was detected using a polyclonal-anti-His-6-HRP conjugated antibody (Abcam) for one hour at room temperature. After extensive washing with PBST, 50 μl of Pierce Chemiluminescent substrate (Thermo Fisher Scientific, Rockford, USA) was added and plates were measured on an Envision plate reader (Perkin Elmer). Raw data was background corrected and plotted using Prism software. […]

6His-Fc-FGFR4 = biological target: T2, 6His-Fc-FGFR4; test: competition ELISA, blocks 6His-Fc-FGFR4 binding to coated FGF2
Description: as §1

[1] = biological target: T3, recombinant human FGFR4 Fc fusion; test: solid phase ELISA on coated FGFR-Fc
Description: (§2) For the ELISA assay, the ability of each mAb to cross react with the […] FGF receptors was tested across a concentration curve in order to determine the relative binding across FGFR1-4. FGFR2IIIb was used as a negative control. Black 384-well Maxisorp plates were coated overnight with FGFR-Fc fusions in PBS to 1 ug/ml before washing and blocking with 75 ul/well Pierce Protein Free (PBS) Blocking Buffer for 1 hour at RT. Antibody dilutions were prepared freshly in 1% BSA- PBS+0.05% Tween20 and 25 ul of each antibody was added to wells in duplicate. Plates were incubated at RT for 2 hours, followed by addition of detection antibody at 50 ng/ml in 1% BSA PBS, 0.05% Tween20. ECL substrate (Pierce) was added and plates were read on the EnVision plate reader.

[2] = biological target: T9, recombinant human FGFR2c Fc fusion (human, UniProt P21802 148-377); test: solid phase ELISA on coated FGFR-Fc
T9 construct: also called FGFR2IIIc; not shown: Fc part of the FGFR-Fc fusion
Description: as §2

[3] = biological target: T4, recombinant human FGFR1c Fc fusion; test: solid phase ELISA on coated FGFR-Fc
Description: as §2

[4] = biological target: T5, recombinant human FGFR3c Fc fusion; test: solid phase ELISA on coated FGFR-Fc
Description: as §2

[5] = biological target: T6, soluble FGFR3c receptor protein; test: BLI Octet RED96, antibody on anti-hIgG Fc tip
Description: (§3) Briefly, the Pall ForteBio Octet RED96 Bio-Layer Interferometry system was used to determine the specificity of anti-FGFR antibodies for FGFR1c, FGFR2c, FGFR3c, and FGFR4. The antibodies and soluble receptor proteins were prepared in PBS at a concentration of 300 nM. First, the candidate antibodies were immobilized on the surface of anti-human IgG Fc biosensor tips for 120 seconds. After immobilization, the biosensors were dipped in PBS solution for 60 seconds (baseline step) to assess assay drift, and determine loading level of antibodies. The baseline step was followed by an association step of 300 seconds wherein the binding interaction between the immobilized antibodies and soluble receptors was measured. Following the association step, the biosensors were dipped into PBS buffer for 600 seconds to measure the dissociation of the bound receptor proteins from the immobilized antibodies. Each binding response was measured and reported real time on a sensorgram trace. For data analysis, a simple 1:1 binding model was used which measures the rate of complex formation of one immobilized antibody and one soluble receptor protein.

[6] = biological target: T7, soluble FGFR1c receptor protein; test: BLI Octet RED96, antibody on anti-hIgG Fc tip
Description: as §3

[7] = biological target: soluble FGFR2c receptor protein (human, UniProt P21802 148-377); test: BLI Octet RED96, antibody on anti-hIgG Fc tip
Description: as §3

[8] = biological target: T8, soluble FGFR4 receptor protein; test: BLI Octet RED96, antibody on anti-hIgG Fc tip
Description: as §3

FGFR1 on tumour cells = FGFR1 on tumour cells (UniProt P11362 22-822); test: cell-based or functional assay
Chain of FGFR1 on tumour cells (P11362 22-822): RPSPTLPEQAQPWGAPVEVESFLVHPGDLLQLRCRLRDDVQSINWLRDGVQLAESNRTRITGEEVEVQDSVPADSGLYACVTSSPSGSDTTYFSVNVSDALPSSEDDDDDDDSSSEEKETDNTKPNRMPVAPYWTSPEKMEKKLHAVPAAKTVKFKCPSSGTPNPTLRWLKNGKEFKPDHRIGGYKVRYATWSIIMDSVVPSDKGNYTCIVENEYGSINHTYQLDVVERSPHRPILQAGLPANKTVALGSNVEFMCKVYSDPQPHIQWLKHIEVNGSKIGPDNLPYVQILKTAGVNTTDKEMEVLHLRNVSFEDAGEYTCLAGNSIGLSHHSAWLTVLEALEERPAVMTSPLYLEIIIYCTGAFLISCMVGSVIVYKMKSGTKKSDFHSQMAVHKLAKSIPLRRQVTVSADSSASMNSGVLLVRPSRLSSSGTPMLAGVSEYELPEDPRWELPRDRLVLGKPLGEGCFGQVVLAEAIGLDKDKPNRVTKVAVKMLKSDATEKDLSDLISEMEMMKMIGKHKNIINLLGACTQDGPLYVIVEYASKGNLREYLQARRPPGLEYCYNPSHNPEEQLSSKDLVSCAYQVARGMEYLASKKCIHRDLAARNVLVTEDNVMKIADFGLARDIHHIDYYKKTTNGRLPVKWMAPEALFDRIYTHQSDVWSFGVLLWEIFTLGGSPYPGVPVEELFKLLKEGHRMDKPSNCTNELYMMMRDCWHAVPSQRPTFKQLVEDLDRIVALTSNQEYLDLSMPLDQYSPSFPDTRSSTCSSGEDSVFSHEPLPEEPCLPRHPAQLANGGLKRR

Chain of soluble FGFR2c receptor protein (P21802 148-377): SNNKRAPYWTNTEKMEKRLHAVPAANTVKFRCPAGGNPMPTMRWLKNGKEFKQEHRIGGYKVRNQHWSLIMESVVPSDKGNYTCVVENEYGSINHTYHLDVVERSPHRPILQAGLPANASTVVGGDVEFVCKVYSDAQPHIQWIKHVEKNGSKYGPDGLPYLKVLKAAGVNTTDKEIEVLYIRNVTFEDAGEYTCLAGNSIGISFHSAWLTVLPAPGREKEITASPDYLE
T9 sequence (P21802 148-377): as above

Row | Binder | IC50 (6His-Fc-FGFR1c) [nM] | IC50 (6His-Fc-FGFR4) [nM] | EC50 [1] [nM] | EC50 [2] [nM] | EC50 [3] [nM] | EC50 [4] [nM] | Kd [5] | koff [5] | kon [5] | Kd [6] | kon [6] | Kd [7] | koff [7] | kon [7] | Kd [8] | koff [8] | kon [8] | IC50 of pERK inhibition (AlphaScreen SureFire) in NCI-H1581 cells (FGFR1 on tumour cells) [nM] | koff [6] [s⁻¹]
1 | B1 | 3.35 | 25.7 | 7.56 | 0.0147 | 0.0112 | 0.129 | 8.42 nM and 8.59 nM and 8.21 nM | 0.00108 s⁻¹ and 0.00105 s⁻¹ and 0.00102 s⁻¹ | 121000 M⁻¹ s⁻¹ and 123000 M⁻¹ s⁻¹ and 124000 M⁻¹ s⁻¹ | 13.7 nM and 4.72 nM and 7.39 nM | 76500 M⁻¹ s⁻¹ and 48900 M⁻¹ s⁻¹ and 44600 M⁻¹ s⁻¹ | 10.3 nM and 11.8 nM and 11.5 nM | 0.00193 s⁻¹ and 0.00234 s⁻¹ and 0.00235 s⁻¹ | 183000 M⁻¹ s⁻¹ and 199000 M⁻¹ s⁻¹ and 205000 M⁻¹ s⁻¹ | 11.2 nM and 7.35 nM and 7.88 nM | 0.00124 s⁻¹ and 0.00091 s⁻¹ and 0.00101 s⁻¹ | 98200 M⁻¹ s⁻¹ and 124000 M⁻¹ s⁻¹ and 128000 M⁻¹ s⁻¹ | 4.12 | 
2 | B2 | 4.16 | 14 | 13.1 | 0.0325 | 0.0242 | 0.264 | 37.6 nM | 0.00286 s⁻¹ | 75600 M⁻¹ s⁻¹ | 20 nM | 57000 M⁻¹ s⁻¹ | 8.75 nM | 0.00142 s⁻¹ | 147000 M⁻¹ s⁻¹ | 40.3 nM | 0.00248 s⁻¹ | 60600 M⁻¹ s⁻¹ | 1.91 | 0.00129
3 | B3 | 4.15 | 7.38 | 1.26 | 0.036 | 0.013 | 0.171 | 11.6 nM | 0.0015 s⁻¹ | 126000 M⁻¹ s⁻¹ | 12 nM | 85100 M⁻¹ s⁻¹ | 4.62 nM | 0.0011 s⁻¹ | 218000 M⁻¹ s⁻¹ | 6.69 nM | 0.000887 s⁻¹ | 112000 M⁻¹ s⁻¹ | 0.715 | 0.00116
4 | B4 | 3.83 | ~7.32 | 0.31 | 0.0224 | 0.0117 | 0.0687 | 15.4 nM | 0.00239 s⁻¹ | 154000 M⁻¹ s⁻¹ | 14.5 nM | 111000 M⁻¹ s⁻¹ | 6.93 nM | 0.00188 s⁻¹ | 254000 M⁻¹ s⁻¹ | 12.5 nM | 0.00169 s⁻¹ | 117000 M⁻¹ s⁻¹ | 0.385 | 0.00165
5 | B5 | 2.03 | 11.8 | 38.2 | 0.0127 | 0.00674 | 0.0745 | 6.29 nM | 0.000983 s⁻¹ | 151000 M⁻¹ s⁻¹ | 8.85 nM | 91600 M⁻¹ s⁻¹ | 6.61 nM | 0.00167 s⁻¹ | 252000 M⁻¹ s⁻¹ | 8.63 nM | 0.0012 s⁻¹ | 125000 M⁻¹ s⁻¹ | 1.01 | 0.000967

— patent publication US20180244785A1 (MERRIMACK PHARMACEUTICALS, published 2018)
